One assay addresses mouse serum albumin (Mus musculus, UniProt P07724, EZ-Link NHS-PEG4-Biotin labelled). The assay is described as follows: SPR. (In SPR one partner is held on a chip, and binding of the other changes the refractive index at the surface.)
In assay [1] the target is recombinant human serum albumin from S. cerevisiae, biotin labelled (Homo sapiens, UniProt P02768, EZ-Link NHS-PEG4-Biotin labelled). The assay is described as follows: SPR.
recombinant human serum albumin from S. cerevisiae, biotin labelled, sequence (P02768 25-609): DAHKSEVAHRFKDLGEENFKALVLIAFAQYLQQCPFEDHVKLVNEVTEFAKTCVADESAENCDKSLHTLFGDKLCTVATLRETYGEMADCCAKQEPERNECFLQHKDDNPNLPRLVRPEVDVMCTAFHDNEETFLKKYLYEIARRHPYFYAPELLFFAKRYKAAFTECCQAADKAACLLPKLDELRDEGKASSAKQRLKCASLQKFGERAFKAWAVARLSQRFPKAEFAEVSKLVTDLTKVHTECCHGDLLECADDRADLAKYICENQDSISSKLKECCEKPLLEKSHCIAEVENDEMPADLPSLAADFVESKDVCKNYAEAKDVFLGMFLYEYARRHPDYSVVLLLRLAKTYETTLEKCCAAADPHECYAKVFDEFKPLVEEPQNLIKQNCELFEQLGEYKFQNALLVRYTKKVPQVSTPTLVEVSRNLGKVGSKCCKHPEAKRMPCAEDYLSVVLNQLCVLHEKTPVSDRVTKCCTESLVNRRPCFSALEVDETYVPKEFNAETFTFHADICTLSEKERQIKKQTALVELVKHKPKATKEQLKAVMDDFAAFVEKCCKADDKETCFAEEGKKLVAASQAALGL

mouse serum albumin, sequence (P07724 25-608): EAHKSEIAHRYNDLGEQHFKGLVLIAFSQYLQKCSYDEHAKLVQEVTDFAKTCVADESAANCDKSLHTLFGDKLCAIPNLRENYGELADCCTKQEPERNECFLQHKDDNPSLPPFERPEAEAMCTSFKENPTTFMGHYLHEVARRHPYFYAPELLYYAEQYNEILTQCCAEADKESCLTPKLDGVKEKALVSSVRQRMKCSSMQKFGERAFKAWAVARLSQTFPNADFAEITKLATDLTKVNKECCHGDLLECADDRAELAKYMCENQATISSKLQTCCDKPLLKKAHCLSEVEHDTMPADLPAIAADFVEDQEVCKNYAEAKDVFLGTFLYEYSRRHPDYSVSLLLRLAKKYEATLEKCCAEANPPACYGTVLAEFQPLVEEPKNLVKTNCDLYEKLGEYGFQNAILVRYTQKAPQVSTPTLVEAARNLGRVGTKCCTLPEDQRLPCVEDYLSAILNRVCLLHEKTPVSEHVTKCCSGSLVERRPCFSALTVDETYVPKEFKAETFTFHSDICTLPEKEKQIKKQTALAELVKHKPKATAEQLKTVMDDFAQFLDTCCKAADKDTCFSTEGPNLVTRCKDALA

B1: Nb.b201 (VHH)
VHH: QVQLQESGGGLVQAGGSLRLSCAASGYISDAYYMGWYRQAPGKEREFVATITHGTNTYYADSVKGRFTISRDNAKNTVYLQMNSLKPEDTAVYYCAVLETRSYSFRYWGQGTQVTVSS
The term Kd denotes the free concentration of one partner at which half of the binding sites on the other are occupied at equilibrium, for simple one-to-one binding. With B1, the binding result with mouse serum albumin is reported as “no binding”. In assay [1], the dissociation constant (Kd) came out at 430 nM.

Source of the values: article doi:10.1101/151043 (bioRxiv, 2017).
